Test system: patients with Type 2 diabetes mellitus (T2DM)
Experiment: Patient disposition / treatment discontinuation (Example 2)
Assay type: in vivo
Settings: randomized population

Substance: Gly(A21)-Arg(B31)-Arg(B32)-human insulin [Insulin Glargine]
- Status at last study contact: Dead, %: 0.9%
- Status at last study contact: Dead, number of patients: 4 patients
- Study treatment discontinuation due to adverse event, %: 1.9%
- Study treatment discontinuation due to adverse event, number of patients: 9 patients
- Study treatment discontinuation due to lack of efficacy, number of patients: 0 patients
